From the RNAGym collection of RNA variant scans (doi:10.7554/elife.80360)

B1: Twister Ribozyme (parent)
chain: AACACUGCCAAUGCCGGUCCCAAGCCCGGAUAAAAGUGGAGGGGGCGG

Variants of: B1
Assay: self-cleavage, relative activity (ratio to wild type); higher = more cleavage; co-transcriptional

Row | Variant | self-cleavage
1 | AACACUGCCAAUGCCGGUCCCAAGCCCGGAUUAAAGUGGAUGGGGCGG [A32U G41U] | 0.659
2 | AACACUGCCAAUGCCGGUCCCGAGCCCGGAUAAAAGUGGGGGGGGCGG [A22G A40G] | 0.588
3 | AACACUGCCAAUGCCGGUCCCAAGUCCGGAUAAAAGUGGAGGGGGCAG [C25U G47A] | 0.663
4 | AACACUGCCACUGCCGGUCCCAAGGCCGGAUAAAAGUGGAGGGGGCGG [A11C C25G] | 0.115
5 | CACACUACCAAUGCCGGUCCCAAGCCCGGAUAAAAGUGGAGGGGGCGG [A1C G7A] | 0.155
6 | AACACUGCCAUGGCCGGUCCCAAGCCCGGAUAAAAGUGGAGGGGGCGG [A11U U12G] | 1.05
7 | AACACUGCCAAUGCCGGUCCCAAGCCCGUAUAAAAGGGGAGGGGGCGG [G29U U37G] | 0.418
8 | AACACUGCCAAUGCCGGUCCCAAGCCCGGACAAAAGUGGAGGGGGCUG [U31C G47U] | 1.02
9 | AACACUGCCAAUGCCGGUCCCAAGCCCGGAUAUACGUGGAGGGGGCGG [A33U A35C] | 0.961
10 | AACACUGCCAAUGCCGGUGCCAAGCCCGGAAAAAAGUGGAGGGGGCGG [C19G U31A] | 0.346
11 | UACACUGCCAAUGCCGGUCCCAAGCCCGGAUAAAUGUGGAGGGGGCGG [A1U A35U] | 0.0666
12 | AACACUGCCAACGCCGGUCCCAAGCCCGGAUAAAAGUGUAGGGGGCGG [U12C G39U] | 0.222
13 | UACACUGCCAAUGCCGGUCCCAAGCCCGGCUAAAAGUGGAGGGGGCGG [A1U A30C] | 0.0658
14 | AACACUGCCAAUGCCGGUCCCAAGCUCGGAUACAAGUGGAGGGGGCGG [C26U A33C] | 0.203
15 | UACACUACCAAUGCCGGUCCCAAGCCCGGAUAAAAGUGGAGGGGGCGG [A1U G7A] | 0.0601
16 | AACACUGCCAAUGCCGGUCCCAUGCCGGGAUAAAAGUGGAGGGGGCGG [A23U C27G] | 0.0875
17 | AACACUCCCAAUGCCGGUCCCAAGCCCGGUUAAAAGUGGAGGGGGCGG [G7C A30U] | 0.0697
18 | AACACUGCGAAUGCCGGUCCCAAGCCGGGAUAAAAGUGGAGGGGGCGG [C9G C27G] | 0.0899
19 | AACACUGCCGAUGCCGGUCCCAAGCCCGGAUAAAAGUGAAGGGGGCGG [A10G G39A] | 0.564
20 | AACACUGCCAAUGGCUGUCCCAAGCCCGGAUAAAAGUGGAGGGGGCGG [C14G G16U] | 0.138
21 | AACACUGCCAAUGCCGGUCACCAGCCCGGAUAAAAGUGGAGGGGGCGG [C20A A22C] | 0.126
22 | AUCACUGCCAAUACCGGUCCCAAGCCCGGAUAAAAGUGGAGGGGGCGG [A2U G13A] | 0.153
23 | AACCCUACCAAUGCCGGUCCCAAGCCCGGAUAAAAGUGGAGGGGGCGG [A4C G7A] | 0.0506
24 | AACACUGCCAAUGCCGGUCCCAAGCCUGGAUUAAAGUGGAGGGGGCGG [C27U A32U] | 0.842
25 | AACACUGCCAAUGCCGGUCCCAAGCCCGGAUACAAGUGGAGGGGGCUG [A33C G47U] | 0.865
26 | AAUACUGCCAAUGCCGGUCCCAAGCCCGGAUAAAAGUGGAGUGGGCGG [C3U G42U] | 0.0877
27 | AACAAUGCCAAUGCCGGCCCCAAGCCCGGAUAAAAGUGGAGGGGGCGG [C5A U18C] | 0.106

Row | Variant | self-cleavage
28 | AACACUGCCAGUGCCGGUCCCAAGCCCGGAUAAAAGUGGAGCGGGCGG [A11G G42C] | 0.455
29 | AACACUGACAAUGCCGGUCCCAAGCCUGGAUAAAAGUGGAGGGGGCGG [C8A C27U] | 0.101
30 | AACACUGCCGAUGCCGGUCCCAAGCCCGGAUAAAAGUGGUGGGGGCGG [A10G A40U] | 0.157
31 | AACACUGCCAAUGCUGGUCUCAAGCCCGGAUAAAAGUGGAGGGGGCGG [C15U C20U] | 0.845
32 | AACACUGCCAAUGCCGGUCCCAAGCCCGGAUAAAAGUGGGGAGGGCGG [A40G G42A] | 0.113
33 | AACACUGUCAAUGACGGUCCCAAGCCCGGAUAAAAGUGGAGGGGGCGG [C8U C14A] | 0.63
34 | AACACUGCCAAUGCCGGUCCCAAGCCCGGAUAAAAGCUGAGGGGGCGG [U37C G38U] | 0.516
35 | AACACUGCCAAUCCCGGUCCCAAGCCCGGAUAAAAGUGAAGGGGGCGG [G13C G39A] | 0.118
36 | AACACUGCCAAUGCCGGUCCCAAGCCCGGAUAAAAGGGAAGGGGGCGG [U37G G39A] | 0.126
37 | AACACUGCCAAUGCCGGUCCCAAGCCCGGAUAAAAGUUGAGGGGCCGG [G38U G45C] | 0.407
38 | AACCCUGCUAAUGCCGGUCCCAAGCCCGGAUAAAAGUGGAGGGGGCGG [A4C C9U] | 0.0772
39 | AACACAGCCAAUGCCGGUCCCAACCCCGGAUAAAAGUGGAGGGGGCGG [U6A G24C] | 0.399
40 | AACACUGUCAAUGCCGGUCCCAAGCCCGCAUAAAAGUGGAGGGGGCGG [C8U G29C] | 0.117
41 | AACACUGCCAAUGCCGGUCCCAAGCCCAGAUAAAAGUGGAGGUGGCGG [G28A G43U] | 0.326
42 | ACCACUGCCAAUGCCGGUCCCAAGCCCGGAUAAAAGUGGAGGGAGCGG [A2C G44A] | 0.107
43 | AACACUGCCAAUGCCGGUCCCAGGCCCGGAUAAAACUGGAGGGGGCGG [A23G G36C] | 0.0979
44 | AACACAGCCAAUGCCGGUCCCAAGCCCGGAUAAUAGUGGAGGGGGCGG [U6A A34U] | 1.04
45 | GACACUGCCAAUGCCGGUCCCAAGCCCGGAUAAAAGUGGAGGGGUCGG [A1G G45U] | 0.274
46 | AACUCUGCCAAUGCCGGUCCCAAGCCCGGAUAAAAGUGGAGGAGGCGG [A4U G43A] | 0.0748
47 | AACACUGCCAAUGCCAGUGCCAAGCCCGGAUAAAAGUGGAGGGGGCGG [G16A C19G] | 0.172
48 | GACACUGCCAAUGCCGGUCACAAGCCCGGAUAAAAGUGGAGGGGGCGG [A1G C20A] | 0.273
49 | CACACUGCCAAUGCCGGUCCCAAGCCCGGAUAAAACUGGAGGGGGCGG [A1C G36C] | 0.159
50 | AACACUGCCAAUGGCGGUCCCAAGCCCGGAUAAAAGUGGAGGUGGCGG [C14G G43U] | 0.08
51 | AACACGGACAAUGCCGGUCCCAAGCCCGGAUAAAAGUGGAGGGGGCGG [U6G C8A] | 0.212
52 | AACACUGCCAAUGCCGGUCCCAAGCCCGAAUGAAAGUGGAGGGGGCGG [G29A A32G] | 0.84
53 | AACACUGCCAAUGCCCGUCCCAAGCCCGGAUAACAGUGGAGGGGGCGG [G16C A34C] | 0.0817
54 | AACACUGCCAAUCGCGGUCCCAAGCCCGGAUAAAAGUGGAGGGGGCGG [G13C C14G] | 0.334
